From paper PMC2945607 (Molecular cell, 2010)

Molecular target: T1, recombinant Caulobacter FtsZ (Caulobacter crescentus, UniProt B8H080 1-508)
T1 sequence (looked up): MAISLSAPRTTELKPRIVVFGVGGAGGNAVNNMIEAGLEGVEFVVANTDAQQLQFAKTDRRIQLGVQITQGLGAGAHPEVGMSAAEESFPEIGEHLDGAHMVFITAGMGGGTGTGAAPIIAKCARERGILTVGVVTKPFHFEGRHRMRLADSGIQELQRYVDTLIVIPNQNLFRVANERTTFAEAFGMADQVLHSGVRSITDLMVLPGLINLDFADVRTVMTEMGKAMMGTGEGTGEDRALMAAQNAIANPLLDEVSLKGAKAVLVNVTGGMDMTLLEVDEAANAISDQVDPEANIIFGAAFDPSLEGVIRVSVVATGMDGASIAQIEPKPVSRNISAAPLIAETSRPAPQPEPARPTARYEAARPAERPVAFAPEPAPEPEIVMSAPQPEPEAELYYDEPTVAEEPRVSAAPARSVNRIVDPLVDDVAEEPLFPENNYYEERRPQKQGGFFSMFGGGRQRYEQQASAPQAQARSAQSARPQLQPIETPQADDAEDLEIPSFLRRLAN
Experiment: right angle light scattering

B1: His6-FzlA (natural protein, Caulobacter crescentus, UniProt Q9A2C6 1-228, looked up)
chain: MSVERTLHHFPLDPASRQVRLALGEKRLPFVEMQVRYWEMPPEFTSLNPSGMPPVLVETKHQRNLVICETRAILEHIEETETEPPLLGRDPAERAEARRLLQWFDRKFDNEVNGFLLHEKMEKRLLRMGAPDLAALRQGREALRMHLGYIESLLQTRDWLAGRRMSLADFAAAAHLSVIDYFGDVPWKDFQAAKTWYMKLKSRPCFRPILADRWPGLAPAAHYDDLDF
Q: How did the “fold increase in light scattering at steady state against FtsZ without FzlA” value turn out when B1 was run?
A: > 10 fold
